Consider three substances from paper PMC6868016.

Experiment [1] addresses ACP-GluA1 (GluA1 tagged with the acyl carrier protein at its N-terminus) (mouse). In words: single-molecule fluorescence tracking (TIRF), colocalization durations, single colour; living HEK293 cells, plasma membrane, 33 ms per frame, colocalization = two spots within 240 nm; duration histograms fitted with a single exponential, lifetimes corrected for photobleaching; 37 °C (monomer references ACP-TM and Halo7-TM at 22 °C); GluA1 and GluA2 homodimers also with TARP2-mGFP overexpression (lifetimes not significantly altered).

Experiment [2] addresses Halo7-GluA2 (GluA2 tagged with Halo7 at its N-terminus, pcDNA3.1B) (UniProt P23819). As to the kind of experiment: single-molecule fluorescence tracking (TIRF), colocalization durations, simultaneous two colours; living HEK293 cells, plasma membrane, ATTO594 on ACP tags and rhodamine110 on Halo7 tags, colocalization = within 240 nm; lifetimes corrected for photobleaching; 37 °C (ACP-TM with Halo7-TM at 22 °C).

The target in experiment [3] is Halo7-GluA1 (GluA1 tagged with Halo7 at its N-terminus, pcDNA3.1B) (mouse). Described as above.
Target sequence in this assay (P23818 19-907): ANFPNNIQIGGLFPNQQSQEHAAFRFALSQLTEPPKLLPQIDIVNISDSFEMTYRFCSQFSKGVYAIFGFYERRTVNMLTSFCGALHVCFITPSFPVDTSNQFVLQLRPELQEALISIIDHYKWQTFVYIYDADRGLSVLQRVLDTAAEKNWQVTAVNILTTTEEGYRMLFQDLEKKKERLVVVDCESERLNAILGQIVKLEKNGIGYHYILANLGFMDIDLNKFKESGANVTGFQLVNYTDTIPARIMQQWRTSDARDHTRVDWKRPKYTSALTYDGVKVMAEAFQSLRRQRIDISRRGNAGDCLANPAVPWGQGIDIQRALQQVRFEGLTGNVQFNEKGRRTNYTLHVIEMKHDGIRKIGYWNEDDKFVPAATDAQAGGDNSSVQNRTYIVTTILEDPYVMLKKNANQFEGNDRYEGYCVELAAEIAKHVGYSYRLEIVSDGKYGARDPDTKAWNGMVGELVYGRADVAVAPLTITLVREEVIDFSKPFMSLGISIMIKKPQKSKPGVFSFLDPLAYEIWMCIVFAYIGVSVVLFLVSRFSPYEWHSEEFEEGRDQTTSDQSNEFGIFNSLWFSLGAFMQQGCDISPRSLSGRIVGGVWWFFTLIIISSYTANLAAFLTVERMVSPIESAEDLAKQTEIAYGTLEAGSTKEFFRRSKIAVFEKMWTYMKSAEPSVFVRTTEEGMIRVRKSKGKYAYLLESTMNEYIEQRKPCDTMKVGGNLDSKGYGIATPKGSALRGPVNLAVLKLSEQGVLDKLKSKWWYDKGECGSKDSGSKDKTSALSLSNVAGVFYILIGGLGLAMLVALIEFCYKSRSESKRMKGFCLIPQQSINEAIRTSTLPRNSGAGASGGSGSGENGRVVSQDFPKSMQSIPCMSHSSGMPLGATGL
Experiment [4] deals with ACP-GluA1ΔNTD (ACP-GluA1 with the N-terminal domain deleted) (mouse). As to the kind of experiment: single-molecule fluorescence imaging (TIRF), distribution of spot signal intensities; living HEK293 cells, plasma membrane, various number densities of expressed molecules; intensity histograms of the initial ten frames fitted with the sum of four (references: two) lognormal functions for monomers, dimers, trimers, tetramers; incidental colocalizations not told apart from true assemblies; also with 0.1 mM AMPA or 10 mM L-glutamate (fractions not altered).

Experiment [5] shares this target. As to the kind of experiment: single-molecule fluorescence tracking (TIRF), colocalization durations, single colour; living HEK293 cells, plasma membrane, 33 ms per frame, colocalization = two spots within 240 nm; duration histograms fitted with a single exponential, lifetimes corrected for photobleaching; 37 °C (monomer references ACP-TM and Halo7-TM at 22 °C); GluA1 and GluA2 homodimers also with TARP2-mGFP overexpression (lifetimes not significantly altered).

The target in experiment [6] is Halo7-GluA1 (GluA1 tagged with Halo7 at its N-terminus, pcDNA3.1B) (mouse). The description is as above.

ACP-GluA1 (GluA1 tagged with the acyl carrier protein at its N-terminus) (receptor), sequence (P23818 19-907): as above
Halo7-GluA2 (GluA2 tagged with Halo7 at its N-terminus, pcDNA3.1B), sequence (P23819 25-883): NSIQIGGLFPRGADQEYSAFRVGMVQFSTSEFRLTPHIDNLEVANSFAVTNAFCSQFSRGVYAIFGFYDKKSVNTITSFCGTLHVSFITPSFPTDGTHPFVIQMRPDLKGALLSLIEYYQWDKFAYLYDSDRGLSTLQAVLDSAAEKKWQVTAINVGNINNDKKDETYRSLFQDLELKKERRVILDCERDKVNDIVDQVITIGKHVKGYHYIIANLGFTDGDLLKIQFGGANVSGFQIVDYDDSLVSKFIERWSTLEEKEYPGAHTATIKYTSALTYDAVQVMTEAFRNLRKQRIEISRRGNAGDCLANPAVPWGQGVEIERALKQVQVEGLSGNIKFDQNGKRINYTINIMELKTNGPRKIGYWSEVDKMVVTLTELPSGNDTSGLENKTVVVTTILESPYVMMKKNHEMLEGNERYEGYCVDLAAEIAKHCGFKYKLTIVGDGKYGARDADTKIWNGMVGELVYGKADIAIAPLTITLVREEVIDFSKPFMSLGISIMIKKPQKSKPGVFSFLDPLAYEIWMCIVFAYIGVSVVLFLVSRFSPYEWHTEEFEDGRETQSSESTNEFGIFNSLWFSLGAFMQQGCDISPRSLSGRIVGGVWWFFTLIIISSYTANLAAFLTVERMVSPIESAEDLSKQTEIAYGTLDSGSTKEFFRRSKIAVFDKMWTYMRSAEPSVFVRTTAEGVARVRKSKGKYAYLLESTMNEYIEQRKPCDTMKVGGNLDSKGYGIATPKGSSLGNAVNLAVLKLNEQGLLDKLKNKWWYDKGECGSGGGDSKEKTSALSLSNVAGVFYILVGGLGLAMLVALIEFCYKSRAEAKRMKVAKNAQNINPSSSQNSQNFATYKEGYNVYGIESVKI
ACP-GluA1ΔNTD (ACP-GluA1 with the N-terminal domain deleted) (domain or fragment), sequence (P23818 378-907, stated change not applied): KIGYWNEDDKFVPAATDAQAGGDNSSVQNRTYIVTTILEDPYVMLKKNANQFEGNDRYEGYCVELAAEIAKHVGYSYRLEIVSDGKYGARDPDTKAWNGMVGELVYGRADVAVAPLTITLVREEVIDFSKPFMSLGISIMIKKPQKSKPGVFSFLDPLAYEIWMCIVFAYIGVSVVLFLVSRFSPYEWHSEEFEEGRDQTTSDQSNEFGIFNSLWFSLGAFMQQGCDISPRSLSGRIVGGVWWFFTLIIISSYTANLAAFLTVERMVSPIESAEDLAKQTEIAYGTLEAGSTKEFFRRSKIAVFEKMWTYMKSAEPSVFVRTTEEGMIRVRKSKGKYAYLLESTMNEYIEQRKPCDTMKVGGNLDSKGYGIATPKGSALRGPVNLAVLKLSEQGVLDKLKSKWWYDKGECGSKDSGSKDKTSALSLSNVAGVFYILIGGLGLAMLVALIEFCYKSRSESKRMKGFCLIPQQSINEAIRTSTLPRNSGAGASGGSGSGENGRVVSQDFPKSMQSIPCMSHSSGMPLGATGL
Halo7-GluA1 (GluA1 tagged with Halo7 at its N-terminus, pcDNA3.1B) (receptor), sequence (P23818 19-907): as the sequence (P23818 19-907) above

In experiment [1], “ACP-GluA1 (GluA1 tagged with the acyl carrier protein at its N-terminus) (receptor)” returned a colocalization lifetime, homodimer of 164 ms; a colocalization lifetime, homotetramer of 98 ms; a colocalization lifetime, homotrimer of 117 ms. Also, in experiment [2], the colocalization lifetime, GluA1/A2 heterodimer (average of the two tag combinations) came to 334 ms; the colocalization lifetime, GluA1/A2 heterotetramer (average of the two tag combinations) was 208 ms; the exponential lifetime, GluA1/A2 heterodimer was 335 ms. Besides, the colocalization lifetime, homodimer in experiment [3] worked out at 177 ms.
Substance “ACP-GluA1ΔNTD (ACP-GluA1 with the N-terminal domain deleted) (domain or fragment)” had a tetramer fraction, fold smaller than that of full-length GluA1 (at 1–1.2 copies μm^−2) in experiment [4] of 3 to 4 fold. In experiment [5], this substance registered a colocalization lifetime, homodimer of 100 ms and a colocalization lifetime, homotetramer of 41 ms.
“Halo7-GluA1 (GluA1 tagged with Halo7 at its N-terminus, pcDNA3.1B) (receptor)” showed a colocalization lifetime, homodimer in experiment [6] of 164 ms.
